Test results published in the DeepSol protein solubility set.

assay: soluble on expression in E. coli; label from the status in PepcDB or PDB records

Sequence | soluble on expression in E. coli
ATKEFIYLVRGMTPEQGQAALDLKVPGVYGIEEFRRFYPAGDVTAHMVGFTDLDDHGREGVELAYDDWLAGVPGKRQVIKDRRGRLIKDVQVTKNAKAGKTLALSID | not soluble
ATPSRKQRVSTLWISDVHLGTRDCQAEHLSAFLKRYQADKVYLVGDIIDGWKLRGGMYWPQAHTNVIRRLLTMSKRGTEVIYVTGNHDEFLRRYSKLVLGNIQLVDEAEHVTAEGRRLLVIHGDQFDVITRYHRWLAFLGDSAYEFTLTLNRWLNHWRAKYGYGYWSLSAYLKHKVKSAVNFISDFEEAIAHECVKRGLDGVVCGHIHHAEIRQVGGVEYLNCGDWVESCTALIEHLDGTIELFRLADAHLKASQPV | not soluble
ATQRFLIEKFSQEQIGENIVCRVICTTGQIPIRDLSADISQVLKEKRSIKKVWTFGRNPACDYHLGNISRLSNKHFQILLGEDGNLLLNDISTNGTWLNGQKVEKNSNQLLSQGDEITVGVGVESDILSLVIFINDKFKQCLEQNKVDRIR | soluble
ATSYMTCSAYQKVQDSEISFPAGVEVQVLEKQESGWWYVRFGELEGWAPSHYLVLDENEQPDPSGKE | soluble
AVSGLYSSSDDVIELTPSNFNREVIQSDGLWLVEFYAPWCGHCQRLTPEWKKAATALKDVVKVGAVNADKHQSLGGQYGVQGFPTIKIFGANKNKPEDYQGGRTGEAIVDAALSALR | soluble
AVSSATLEMESQRDEVAGLVRLGLSQSFGTLHIIPAIQELRELYPQLQVEVHLFDYKVDMLAEGLDLWVTNNEHLPEGYIAQRLTDCQFVVAASPDYLLKYDTPTEPNDLSLHNCLIYRSWERDYTGWAFTKGQQELNVKVSGNYSVDLAEAVRDAAIAGWGIAYLATYLLGDEFRTGKLIQLLPDWKASQSMPFYAVYPSRQHMPKKISAVINFIKQKIGNPCHWDQRLAPYISIPK | not soluble
DAYIGVLIDDLVTKGTNEPYRLLTSRAEYRLLLRHDNADLRLTDMGYELGMISEERYARFNEKRQQIDAEIKRLSDIRIKPNEHTQAIIEQHGGSRLKDGILAIDLLRRPEMTYDIILEILEEEHQLNADVEEQVEIQTKYEGYINKSLQQVEKVKRMEEKKIPEDLDYSKIDSLATEAREKLSEVKPLNIAQASRISGVNPADISILLIYLEQG | not soluble
DDFEDSLEYLEPLDHDAYIVRLNFTGENTTEPIISYMTKTHNIDVNILEADIKNTKNGSLGFLVIHIPHISEEHFKQFKHNLHEQHVNVEVLKHG | not soluble
DGPYLQILEQPKQRGFRFRYVCEGPSHGGLPGASSEKNKKSYPQVKICNYVGPAKVIVQLVTNGKNIHLHAHSLVGKHCEDGVCTVTAGPKDMVVGFANLGILHVTKKKVFETLEARMTEACIRGYNPGLLVHSDLAYLQAEGGGDRQLTDREKEIIRQAAVQQTKEMDLSVVRLMFTAFLPDSTGSFTRRLEPVVSDAIYDSKAPNASNLKIVRMDRTAGCVTGGEEIYLLCDKVQKDDIQIRFYEEEENGGVWEGFGDFSPTDVHRQFAIVFKTPKYKDVNITKPASVFVQLRRKSDLETSEPKPFLYYPEIKDKEEVQRKRQK | soluble
DGSPAATPEIRVNHEPEPAGGATPGATLPKSPSQLRKGPPVPPPPKHTPSKEVKQEQILSLFEDTFVPEISVTTPSQPAEASEVAGGTQPAAGAQEPGETAASEAASSSLPAVVVETFPATVNGTVEGGSGAGRLDLPPGFMFKVQAQHDYTATDTDELQLKAGDVVLVIPFQNPEEQDEGWLMGVKESDWNQHKKLEKCRGVFPENFTERVP | soluble
DGTSQLAELVDAAAERLEVADPVAAFKWRAQLPIEDSGRVEQQLAKLGEDARSQHIDPDYVTRVFDDQIRATEAIEYSRFSDWKLNPASAPPEPPDLSASRSAIDSLNNRMLSQIWSHWSLLSAPSCAAQLDRAKRDIVRSRHLDSLYQRALTTATQSYCQALPPA | soluble
DITGIPTGFTELDRMTAGFQRNDLIIVAARPSVGKTAFALNIAQNVATKTDESVAIFSLEMGAEQLVMRMLCAEGNINAQNLRTGNLTEEDWGKLTMAMGSLSNSGIYIDDTPGIRVSEIRAKCRRLKQESGLGMILIDYLQLIQGSGRSKDNRQQEVSEISRELKSIARELQVPVIALSQLSRGVEQRQDKRPMMSDI | not soluble
DIVLTQSPTTMAASPGEKITITCSASSSISSNYLHWYQQKPGFSPKLLIYRTSNLASGVPARFSGSGSGTSYSLTIGTMEAEDVATYYCQQGSSIPLTFGAGTKLELKRADAAPTVSIFPPSSEQLTSGGASVVCFLNNFYPKDINVKWKIDGSERQNGVLNSWTDQDSKDSTYSMSSTLTLTKDEYERHNSYTCEATHKTSTSPIVKSFNRNEC | soluble
DIVMTQTPKFLLVSAGDKVTITCKASQSVSNDLTWYQQKPGQSPKLLIYYASNRYTGVPDRFTGSGYGTDFTFTISTVQAEDLAVYFCQQDYGSPPTFGGGTKVEIKRTVAAPSVFIFPPSDEQLKSGTASVVCLLNNFYPREAKVQWKVDNALQSGNSQESVTEQDSKDSTYSLSSTLTLSKADYEKHKVYACEVTHQGLSSPVTKSFNRGEC | soluble
DKLTRQPFFIKLINYLQIHDDVTLRQIKRNFADTEHLERSIEDYVQAGYVLRENKHYYNAFELLENLDGLTLDSQIFVDDQSSIYQDLLALTFETYLSNQTNAALIIEKTDISRDALTLSNYFFKLNENFPLSRKQKPLYHLLGDVNPNYALKYMTTFLLKFWGKDVVKQKRPDIFVQALVLLGYLEQVGKQSYCLKMTFDKEKLIFAS | soluble
DLRGDLHMHTDYSEGAESLETMVEKAESMGYEYIAVTDHSRSQRIANGMDIETLKEQWKEIKSLSKRFRIKVLRGSEVEILKDGSLDYPDEILKELDVVVGAVHSGFAASEREMTGRIITALENKHLDILAHPSGRLLGKREAYAVNFGKVFEAAAENGKVMEINCQPSRLDLNDELIFRAKDYELKFCISTDSHSVSDLASMRYGLGQARRSWLEKEDIVNTYPYSRLKEVFKKLRD | not soluble
DPHAYEHNLKSWVGNTPVFATVNQLDLDEEQSTLLKGEVGVDWYWMGYEAGKYLAERHPKGSGKTNIALLLGPRTRGGTKPVTTGFYEAIKNSDIHIVDSFWADNDKELQRNLVQRVIDMGNIDYIVGSAVAIEAAISELRSADKTHDIGLVSVYLSHGVYRGLLRNKVLFAPTDKMVQQGRLSVMQAAHYLRHQPYEKQASPIIKPLTPKTLHDDTIEESLSPSEYRPTFSIKAVD | not soluble
DPVSDITDLNYWKTPEQFDSFVFGLHSRFRSHSWNMFLLGEARSDVFGGIPFGGEATQGMERFPYNTLNAENPGISGFGDLYQNINQMNLFISRTLHTDVLTESARNYYLGQVYGLRAYYMYQLYRSWGDVVFTEEPSLGFEVGKLAKAATPAAEIFEQVKKDIESSLSYFGSDYTIKEKKSLWSKAATLMLKADVYLWSAHRDGGEGDARTAKNALVDIQNNISRSNLDLMDTYQGVFAYDNKGNKEIIFTIHNELFEYNLWNGNNDLFPQADYLGKFYNADGTLINTSVENNFGIMRLMVKLENFKKFLPGDTRRDVTLKDVYNKVENGKLELVGVYPHKYWGVMNGSTRVRCDDYPIYRYSDLLLMLAEAKVLLGEDPATEINRVRRRAFGDAYDASTVGFPNQEVDKRPADAVLQERLFEFMLEGKRWYDLRRFGDSYVLDYTPAEPARLLWPINQGALTNNPLLKQTVGY | soluble
DQRRRFIEAVLSGVTAAVIGVGRDRRITIFNPSSEGMLKKAAPELIGANLSDVAPEIEAVLVEAESRYRNDYRKQINIMRGGTERTMNVQVTREEGDESHGSYVITVDDIT | not soluble
DRQREAAQPAASQSASAMEANPTPAPDRSTSTSLFGDSDSAPRHRLNEEPAARRTSHDSEGMYTRRSVPRESYRDQRSDDFDDDLDIPDFLR | not soluble
DSYPDSQIEIRTLVGPYENTLVFRDTGPGIDDSILHKIFDDFFSFQKSGGSGLGLGYCQRVMRSFGGRIECKSVTNEFTEFYLHFPVVPNAPKVETLRTPNFYNWNQKVKTK | not soluble
